Bridge positions count the residues as written; N and C are the ends. Square brackets hold non-standard residues; d marks the D form. Ends that are not written are not given here. I, II: the chains in the order shown. Lys(N3) = [N-]=[N+]=NCCCC[C@H](N)C(=O)O; Pra = C#CC[C@H](N)C(=O)O

The target in test [1] is T1, Full-length His-tagged IL-17F protein (ab167911, Abcam) (human, UniProt Q96PD4 31-163).
T1 construct: Bought protein, called full-length and His-tagged; also called human IL-17F protein; recombinant human IL-17F protein; not shown: His tag
T1 sequence: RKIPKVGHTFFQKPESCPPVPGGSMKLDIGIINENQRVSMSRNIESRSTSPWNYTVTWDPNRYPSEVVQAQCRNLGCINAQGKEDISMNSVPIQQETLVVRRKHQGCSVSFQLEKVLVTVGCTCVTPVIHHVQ
As to the kind of experiment: not stated in the sentence (same number as the ELISA EC50 of paragraph 504); monoligand Cy(RSYNKX1X2), not the biligand. Background: In an ELISA, binding on a coated surface is turned into a signal by an enzyme label.

The target in test [2] is T1, Full-length His-tagged IL-17F protein …. The experiment in a line: fluorescence polarization in solution; IL-17F titrated against 5-FITC-tagged macrocycle; 5-FITC-tagged LF2, fluorescence polarization in solution. In general terms: Fluorescence polarisation rises when a labelled molecule tumbles more slowly, as on binding a larger partner.
For test [3] the target is unchanged. The experiment in a line: point ELISA; macrocycle on NeutrAvidin plate, His-tagged IL-17F against His-tagged IL-17A at 100 nM.
Test [4] shares this target. As to the kind of experiment: sandwich ELISA; biotinylated macrocycle on NeutrAvidin plate, His-tagged IL-17F titrated.
Test [5] has the same target. As to the kind of experiment: sandwich ELISA; biotinylated macrocycle on NeutrAvidin plate, His-tagged IL-17F titrated, anti-His-AP detection.
The target of test [6] is T2, His6-PEG3-SQFEKFPSPPVPGGS (not fully specified (N-terminus); printed as His6-PEG3-SQFEKFPSPPVPGGS).
T2 construct: Synthetic; residues N-terminal to C48S scrambled
T2 peptide: SQFEKFPSPPVPGGS
As to the kind of experiment: point ELISA; macrocycle on NeutrAvidin plate, His-tagged epitope, anti-His-AP detection.

The target of test [7] is T1, Full-length His-tagged IL-17F protein …. The experiment in a line: point ELISA; surface-immobilized macrocycle with IL-17F, IL-17A or no protein.
For test [8] the target is unchanged. As to the kind of experiment: point ELISA; macrocycle on NeutrAvidin plate, His-tagged IL-17F against His-tagged IL-17A.
For test [9] the target is unchanged. As to the kind of experiment: fluorescence polarization in solution; IL-17F titrated against 5-FITC-tagged macrocycle; 5-FITC-tagged LF1, fluorescence polarization in solution.
For test [10], the target named is T3, His6-PEG3-FFQKPESSPPVPGGS (human, not fully specified (N-terminus); printed as His6-PEG3-FFQKPESSPPVPGGS).
T3 construct: Not clear whether the listing entry holds the His6
T3 peptide: FFQKPESSPPVPGGS
As to the kind of experiment: point ELISA; macrocycle on NeutrAvidin plate, 2 µM His-tagged epitope.

Test [11] has as its target T4, His6-PEG3-FFQKPESSPVSPGPG (not fully specified (N-terminus); printed as His6-PEG3-FFQKPESSPVSPGPG).
T4 construct: Synthetic; residues C-terminal to C48S scrambled
T4 peptide: FFQKPESSPVSPGPG
The description is as above.

The target in test [12] is T5, Plasmodium falciparum Histidine Rich Protein-2 (Plasmodium falciparum).
T5 construct: the construct used in the assay is not described; also called Pf.HRP-2
T5 chain: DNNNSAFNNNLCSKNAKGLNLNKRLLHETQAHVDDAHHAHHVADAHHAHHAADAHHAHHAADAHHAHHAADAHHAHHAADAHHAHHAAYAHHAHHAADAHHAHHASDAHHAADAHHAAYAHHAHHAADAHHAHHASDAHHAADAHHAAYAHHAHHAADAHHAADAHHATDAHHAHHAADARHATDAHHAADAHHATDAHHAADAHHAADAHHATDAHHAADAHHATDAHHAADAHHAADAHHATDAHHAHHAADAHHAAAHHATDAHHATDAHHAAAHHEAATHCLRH
As to the kind of experiment: assay not described; two Cy(YKYYR) PCCs joined by about a 1.5 nm linker.

In test [13] the target is T1, Full-length His-tagged IL-17F protein …. The experiment in a line: fluorescence polarization in solution; in solution by fluorescence polarization.
Test [14] has the same target. As to the kind of experiment: point ELISA; recombinant human IL-17F against IL-17A.
The target is the same in test [15]. The experiment in a line: binding to His-tagged IL-17F human recombinant protein (ELISA format); reference: the individual PCC macrocycles Cy(RRATSX1X2) and Cy(RSYNKX1X2).
The target is the same in test [16]. The experiment in a line: binding to His-tagged IL-17F human recombinant protein.
Test [17] shares this target. The experiment in a line: binding to His-tagged IL-17F human recombinant protein (ELISA format); PEG3-linked biligand; binding to His-tagged IL-17F, not in solution.
For test [18], the target named is T5, Plasmodium falciparum Histidine Rich …. The experiment in a line: assay not described; monoligand cy(GWNVDL).
For test [19] the target is unchanged. The experiment in a line: assay not described; biligand cy(YKYYR)-linker-cy(GWNVDL).
Test [20] shares this target. The experiment in a line: assay not described.
For test [21] the target is unchanged. As to the kind of experiment: assay not described; monoligand Cy(YKYYR).

B1: Biotin-PEG3-Cy(RSYNKX1X2) (peptide)
peptide: RSYNK[Lys(N3)][Pra]
modifications: triazole 6-7; not fully specified (N-terminus, bridges); printed as Biotin-PEG3-Cy(RSYNKX1X2); also: no peptide bond X6-X7, Pra is the true N-terminus, Az4 the true C-terminus, Biotin-PEG3 label at N-terminus (on Pra)
notes: also called LF2
With B1, the Kd (usually the concentration at which binding is half-saturated) in test [1] was 15 nM; in test [2] it was 28 nM. In addition, in test [3], the “selectivity for IL-17F over IL-17A” value was 4 ratio IL-17F:IL-17A. Besides, the concentration giving a half-maximal response (EC50) (in general, the concentration that produces a half-maximal response) in test [4] is 15 nM.

B2: Cy(RRATSX1X2)-PEG3-biotin (peptide)
peptide: RRATS[Lys(N3)][Pra]
modifications: triazole 6-7; not fully specified (C-terminus, bridges); printed as Cy(RRATSX1X2)-PEG3-biotin; also: no peptide bond X6-X7, Pra is the true N-terminus, Az4 the true C-terminus, PEG3-biotin label at C-terminus (on Az4)
notes: Biotin-PEG3 form used on NeutrAvidin plates; also called LF1
Regarding B2, the concentration giving a half-maximal response (EC50) in [5] came out at 66 nM. Besides, the binding result is recorded as “no binding (tested: 2 µM epitope)” in test [6], “binds” in [10] and “binds” in [11]. The “selectivity for IL-17F over IL-17A” value in test [7] is 10 ratio IL-17F:IL-17A; in [8], 2 ratio IL-17F:IL-17A. For the same molecule, in [9], the Kd was determined as 50 nM.

B3: Cy(RRAQSX1X2)-PEG3-biotin (peptide)
peptide: RRAQS[Lys(N3)][Pra]
modifications: triazole 6-7; not fully specified (C-terminus, bridges); printed as Cy(RRAQSX1X2)-PEG3-biotin; also: no peptide bond X6-X7, Pra is the true N-terminus, Az4 the true C-terminus, PEG3-biotin label at C-terminus (on Az4)
Take B3: the concentration giving a half-maximal response (EC50) in test [5] stood at 52 nM. For the same molecule, the binding result was “no binding (tested: 2 µM epitope)” in [6], “binds” in [10] and “binds” in test [11]. In addition, the “selectivity for IL-17F over IL-17A” value in test [8] is 2 ratio IL-17F:IL-17A.

B4: linked biligand of two Cy(YKYYR) PCCs (designed binder)
peptide: YKYYR
modifications: not fully specified (bridges)
notes: also called The resultant linked biligand
In test [12], B4 showed a half-maximal effective concentration (EC50) of 20.8 nM.

B5: Biotin-PEG3-Cy(RSYNKX1X2)-PEG3-Cy(RRATSX1X2) (designed binder)
peptide 1: RSYNK[Lys(N3)][Pra]
peptide 2: RRATS[Lys(N3)][Pra]
modifications: triazole I:6-I:7, II:6-II:7; not fully specified (N-terminus, C-terminus); printed as Biotin-PEG3-Cy(RSYNKX1X2)-PEG3-Cy(RRATSX1X2); also: chain 1 joined to chain 2 through one PEG3 linker, backbone orders Pra-RSYNK-Az4 and Pra-RRATS-Az4, no bonds X6-X7
notes: One covalent molecule: two macrocyclic peptides joined by a single PEGylated amino acid (not a peptide linker), written here as two peptide segments; also called Bi-LF; anti-IL-17F biligand with PEG3 linker
Turning to B5, the dissociation constant (Kd) in [13] amounted to 0.252 nM; in test [17] it was 0.246 nM. Besides, in [14], the “selectivity for IL-17F over IL-17A” value is 4 ratio IL-17F:IL-17A. Moreover, in test [15], the “fold improvement in affinity relative to the individual PCC macrocyclic ligands” value is greater than 100 fold. In [16], the “fold better binder than the biligands with other linkers” value was roughly 10 fold. Also, in test [16], the “times stronger than the other biligands” value was no less than 16 fold.

In test [18], GWNVDL (not fully specified (bridges); also: cyclic, ring closure not given here, also called cy(GWNVDL)) [cyclic PCC with variable sequence GWNVDL] came in with a concentration for a half-maximal effect (EC50) of 50 nM.

B6: cy(YKYYR)-linker-cy(GWNVDL) (designed binder)
peptide 1: YKYYR
peptide 2: GWNVDL
modifications: not fully specified (bridges); printed as cy(YKYYR)-linker-cy(GWNVDL)
notes: also called The resultant biligand
As for B6, the EC50 in test [19] was 0.54 nM. In addition, the “fold improvement over the better of the two ligand components” value in [20] was 100 fold.

B7: Biotin-PEG3-Cy(KKGWPX1X2) (peptide)
peptide: KKGWP[Lys(N3)][Pra]
modifications: triazole 6-7; not fully specified (N-terminus, bridges); printed as Biotin-PEG3-Cy(KKGWPX1X2); also: no peptide bond X6-X7, Pra is the true N-terminus, Az4 the true C-terminus, Biotin-PEG3 label at N-terminus (on Pra)
Take B7: in test [3], the “selectivity for IL-17F over IL-17A” value was 4 ratio IL-17F:IL-17A. For the same molecule, the 50% effective concentration (EC50) in [4] turned out to be 24 nM.

YKYYR (also: cyclic, ring type not given here, also called cyclic YKYYR) [Cy(YKYYR)]: the EC50 in test [21] worked out at 220 nM.
